In the DeepSol protein solubility set:

Experiment: soluble on expression in E. coli; label from the status in PepcDB or PDB records

Sequence | soluble on expression in E. coli
MDEHFIKIHKWLYPVSWIYGAVVTVRNKLFDWGFLRSKSFGVPVICIGNLSVGGTGKTPHTEYLIKLLRDNYHVAVLSRGYKRHSRGYVLATPQSTARSIGDEPYQMHTKFPSVTLAVDENRCHGIEQLLSIKEPSIEVVLLDDAFQHRYVKPGLSILLTDYHRLFCDDTLLPAGRLRESVNGKNRAQIVIVTKCPQDIKPIDYNIITKRLNLYPYQQLYFSSFRYGNLQPVFPSANSEIDSTVNELPLSALTNTDILLVTGIASPAPILEELKMYTDQIDSLSFDDHHHFSHRDIQQIKERFGKLKGEHKLIVTTEKDATRLIHHPVLSEELKPFIYALPIEIEILQNQQDKFNQHIIGYVRENTRNSSFSERENAHQSLEHHHHHH | soluble
MGSDKIHHHHHHMGHQEFMSQEEVDALLKGVTGETDTVDEQRDLSSVRPYNIATQERIVRGRMPGLEIINDRFARLLRIGIFNFMRRTAEISVSQVKVQKYSEFTRNLPIPTNLNLVHVKPLRGTSLFVFDPNLVFFVVDNLFGGDGRFHTRVEGRDFTATEQRIIGKLLNLVFEHYATAWKSVRPLQFEFVRSEMHTQFANVATPNEIVIVTQFSIEFGPTGGTLHICMPYSMIEPIRDVLSSPIQGEALEVDRRWVRVLSQQVQSAEVELSANLAEIPSTFEKILNLRAGDVLPLEIEDTITAKVDGVPVMECGYGIFNGQYALRVQKMISASDTMKEGGYE | not soluble
MVSSSVARGLEDAGLKRFVPAFSGVSDQAFLGLMMSDYASYGVVELEDKQRLFRLIKSIAASVKSSDAPAPALEKPNALIDLDENDGDLLADAGVNFQLSPLANQNPKAPVPSGGGGVPPSEGEDPPKIRVVVRKRPISKKERERGDDDVVDVLAKNNTVVVNEEKVKVDLTKYLEKHAFKFDESLDENVSNEAVYQLTVGPLVRTLFRNGRASCFAYGQTGSGKTYTMSPLPIRASADIFTFMAQQQYRDISLCVSCFEIYGNKVFDLLNARKKLNILEDGKKKVVVVGLKEFGVDDVDGVKALIEESAKNRSTGSTAANADSSRSHSIMQFALKRAAPAPAGGFRRGEDAPEPRVVGKISFIDLAGSERGADTFDNNRQTRLEGAEINKSLLALKECIRALDSDARHVPFRGSKLTAVLRDSFVGDQARTVMIANISPCSSSVEHTLNTLRYADRVKELRKDKADRTPGGVTPGDDAYYAAVARAAGPGQAAAPAPERERERADLQRERDRERASDRYPSPPRQQAGAFAGGGGGGAGADGEGSAAALAERHDELMDSILLEEENLVAFHRAKLEEDMETMRQEMALLQEVDKPGSEIDHYVEQMSALLNIKRQGIQELQAKLDTFKAKLREEEALSRTVHKIRT | not soluble
MGSDKIHHHHHHMKQIYLLLLCGVLFACKKKESLPEVQKIGHSGMGLYGDYPINSFESLMQAFLLGADGVEIDVQMTRDGILVLLHDELLDNQTNGTGAVQERTWDEISNLAYDNIALGRYNIIRLDFLLENCGPHIDKLFYFDIKPNAYSTEHLYTLNRNLSTLITKFNLEDNSVLMYQNNAQFLHMLSLRTDLTIYSYSDFNTAKKNILQYKLNGWVASINDIDESKVAQMHEIGARVVGFSTFNKNDHLNLIHKGVDIIQTDNLKNLINLYQ | not soluble
MRNILKATTLENKFPLFTVENGCIVSKDADITVAFRVELPELFTVTAAEYEAIHSAWNKAVKVLPDYSIVHKQDWFIKENYAPDIQKDDLSFLSRSFERHFNERPFLNHTCYLFLTKTTKEHSRMQSNFSTLCRGFLVPKEIRDRETVTKFLEAVGQFESIMNDSGFITLTRLSSDEITGTRETAGIVEKYFSLSQTDTTTLKDISLGADEMKIGDNILCLHTLSDAEDMPGKVGTDTRYEKLSTDRSDCRLSFASPVGVLLSCNHIYNQYIFIDDHTENLKQFEKMARNMHSLSKYSRANQINKSWIEEYLNEAHSQGLISVRCHCNIMAWSDDRDELKHIKNDVGSQLALMECKPRHNTTDTPTLFWAGIPGNQADFPAEESFYTFIEQALCLFTEETNYKSSLSPFGIKMVDRVTGKPLHIDISDLPMKRGIITNRNKFILGPSGSGKSFFTNHMVRQYYEQNAHVLLVDTGNSYLGLCEMINRKTHGEDGIYFTYTTENPIAFNPFYVEDGVFDIEKKESIKTLILTLWKRDDEAPTRAEEVALSNAVSSYIGLITKDCSVTPCFNTFYEYVRNDYRAHLQEKNVREKDFDIDNFLNVLEPYYKGGEYDYLLNSDKELDLLHKRFIVFELDNIKDHKILFPITTIIIMEVFINKMRKLKGIRKLILIEEAWKAIASANMADYIKYLYKTVRKYFGEAIVVTQEVEDIISSPIVKESIINNSDCKILLDQRKYLNKFDSIQNLLGLTDKERSQVLSINLANHPNRKYKEVWIGLGGTQSAVYATEVSLDEYFTYTTEETEKMELFALSEKLGGNLELAIKRLAESKRNPEK | not soluble
GMDISGRDVETRLTLAREFMSGVDELPTVPDIVLRIAGKLNDPDVAIDEVADLLLQDQVLTARVVHLANSPLYSAARPISSIRDAVIYLGLDLLREAIFTCAIVDLFKTGKGPLNRSTLWAHSLGVARIAKLIAERTGFLNPVNVYVAGLLHDVGEVFINFFRGKEFSQVVTLVDEEKITFGQAEERLFGTSHCEVGFALAKRWSLNEFICDTILYHHDIEAVPYKQAAIVAMVAFADEYCTLRRLGFEGHKPVDSVRTLLENHPSWGVIRRSLGGSDFDEKLIVAELDSSIVEIRAAVDELFLL | soluble
MEFAAENEGKSGGGLHSVAEGVRLSPEPGREGVRDLAGAEEFGGGEEGTGLTGIKEIGDGEEGSGQRPEEIPMDLTVVKQEIIDWPGTEGRLAGQWVEQEVEDRPEVKDENAGVLEVKQETDSSLVVKEAKVGEPEVKEEKVKEEVMDWSEVKEEKDNLEIKQEEKFVGQCIKEELMHGECVKEEKDFLKKEIVDDTKVKEEPPINHPVGCKRKLAMSRCETCGTEEAKYRCPRCMRYSCSLPCVKKHKAELTCNGVRDKTAYISIQQFTEMNLLSDYRFLEDVARTADHISRDAFLKRPISNKYMYFMKNRARRQGINLKLLPNGFTKRKENSTFFDKKKQQFCWHVKLQFPQSQAEYIEKRVPDDKTINEILKPYIDPEKSDPVIRQRLKAYIRSQTGVQILMKIEYMQQNLVRYYELDPYKSLLDNLRNKVIIEYPTLHVVLKGSNNDMKVLHQVKSESTKNVGNEN | soluble
MNSRQQSILQMVVDKGQMSVAELAKITGVSEVTIRQDLNTLEKQSYLRRAHGFAVSLESDDVETRMMTNYTLKRRLAEFAASLVSPGESVFIENGSSNALLARTLAEQKDVTIITVSSYIAHLLKETPCEVILLGGIYQKKSESMVGPLTRQFIHQVHFSKAFIGIDGWQADTGFTGRDMMRSDVVNAVLEKGSEAIVLTDSSKFGCVHPYPLGPLSRFHRVITDSKISASDQMQLEHAGLLVNVIGSSV | not soluble
MSLVEAISLWNEGVLAADKKDWKGALDAFSAVQDPHSRICFNIGCMYTILKNMTEAEKAFTRSINRDKHLAVAYFQRGMLYYQTEKYDLAIKDLKEALIQLRGNQLIDYKILGLQFKLFACEVLYNIAFMYAKKEEWKKAEEQLALATSMKSEPRHSKIDKAMECVWKQKLYEPVVIPVGKLFRPNERQVAQLAKKDYLGKATVVASVVDQDSFSGFAPLQPQAAEPPPRPKTPEIFRALEGEAHRVLFGFVPETKEELQVMPGNIVFVLKKGNDNWATVMFNGQKGLVPCNYLEPVELRIHPQQQPQEESSPQSDIPAPPSSKAPGRPQLSPGQKQKEEPKEVKLSVPMPYTLKVHYKYTVVMKTQPGLPYSQVRDMVSKKLELRLEHTKLSYRPRDSNELVPLSEDSMKDAWGQVKNYCLTLWCENTVGDQGFPDEPKESEKADANNQTTEPQLKKGSQVEALFSYEATQPEDLEFQEGDIILVLSKVNEEWLEGECKGKVGIFPKVFVEDCATTDLESTRREV | soluble
MKFAVVVFPGSNCDVDMYHAIADELGEEVEYVWHDEDDLDRFDAILLPGGFSYGDYLRSGAIARFSKVMAAVKKAAEAGKPVLGVCNGFQILLEAGLLPGAMRRNQGLKFICRPVQLTVENHETIFTSAYEKGEVITIPIAHGEGNYYCDEQTLERLVENRQIVFRYHGENPNGSLADIAGIVNERGNVLGMMPHPERAVDALLGSADGLKLFRSIVNYWRETHVVTA | not soluble
MGSDKIHHHHHHMKHEPLELGLKIEDAILVNEKLKDFVVYKSGKPRIDFKNKEAMKEYNIAILGHVFGLDMDFHEDALIPTPINRYLFIKNIFDEKDDIKDVLEIGTGSGIISILIAKYFECNVTATDTVSDYLKIAKDNISKNNLTSKINLIDSKGKIIFDIPELKNKKFDLIISYPPYYADNSVASKRSFGGAFASEVELIGGGAYGEVFSQKIIEEGMDHLNNGGIVAIMFPEKPFERRKFVEDKILELGLTLEKSEITTGKRIRHIIKAKKE | not soluble
